Experimental data as given in publication PMC5159607.

Substrate: Oc1ccc2c(c1)OC[C@@]1(O)c3ccc(O)cc3O[C@@H]21
Test: HPLC prenyltransferase assay, recombinant yeast microsomes, Lineweaver-Burk
Format: biochemical, Glycine max
Details: 400 µM DMAPP, divalent cation required (Mg2+ preferred), 30 °C, 15 min

B1: G2DT (PT7; ΔTP-PT7) (Glycine max) (protein)
chain: YKKKTQIECNILRSQQSSLNHHYKRIEGGATYQDCDKKYVVKAIPEPTFDSEPCASNPENVVDSAKKILDVFYHFCYPYSMIAIILCAISSSLLAVEKPSDISSSFLIGVLQALVPHLFVAVFANVVNQVFDYEIDKINKPYLPLASGQLSFTTAVFIAASLLIMSFWLSLVIGSWPLIWNVVLTSSVWNVYSINVPLLRWKRHPLLATICTISVWAFILPITFFLHMQTFVLKRPIVFPRSLIFYVVFMIFYSLGMALSKDISDVKGDKAYGIDTLAIRLGQKWVFWICIILFEMAFGVALLAGATSSYLWIKIVTGLGHAILASILLYQAKSIYLSNKVSTISFYMLIWKLLYAAYFLMALIR
Km: 183 µM
